Test results taken from paper PMC11173125.

Molecular target: Nsp9 (SARS-CoV-2, UniProt P0DTD1 4141-4253)
Experiment: EMSA
Conditions: protein: recombinant; tags: C-terminal […]; (pET21b); chain copies: 2; label: 5' biotin; single strand

TTTTTTTTTTTTTTTTTTTTTTTTTTTTTTTTTTTTTTTTTTTTT (ssDNA) [dT45]
apparent K (half saturation): 33.5 ± 2.5 µM
